# Data reported in patent US20250346679A1 (INVOX PHARMA, published 2025).
# T1: cynomolgus CD137, cell-surface (cynomolgus, UniProt Q07011 24-255 (human entry))
# T1 construct: also called DO11.10.cCD137; CD137 on cynomolgus T cells
# T1 chain: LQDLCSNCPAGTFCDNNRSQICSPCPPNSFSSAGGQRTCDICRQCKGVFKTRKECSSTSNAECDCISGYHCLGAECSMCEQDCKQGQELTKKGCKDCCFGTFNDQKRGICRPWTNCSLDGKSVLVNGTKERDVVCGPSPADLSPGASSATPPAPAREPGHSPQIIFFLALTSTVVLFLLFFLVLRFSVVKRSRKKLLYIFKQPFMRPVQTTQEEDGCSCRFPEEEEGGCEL
# B1: FS22-172-003-AA/E12v2 (bispecific antibody, human IgG1, kappa, L234A L235A)
# heavy: EVQLVQSGAEVKRPGASVKVSCKASGYPFTSYGISWVRQAPGQGLEWMGWISAYSGGTNYAQKLQGRVTMTTDTSTSTAYMELRSLRSDDTAVYYCARDLFPTIFGVSYYYYWGQGTLVTVSSASTKGPSVFPLAPSSKSTSGGTAALGCLVKDYFPEPVTVSWNSGALTSGVHTFPAVLQSSGLYSLSSVVTVPSSSLGTQTYICNVNHKPSNTKVDKKVEPKSCDKTHTCPPCPAPEAAGGPSVFLFPPKPKDTLMISRTPEVTCVVVDVSHEDPEVKFNWYVDGVEVHNAKTKPREEQYNSTYRVVSVLTVLHQDWLNGKEYKCKVSNKALPAPIEKTISKAKGQPREPQVYTLPPSRDELPYIIPPYNQVSLTCLVKGFYPSDIAVEWESNGQPENNYKTTPPVLDSDGSFFLYSKLTVGADRWLEGNVFSCSVMHEALHNHYTQKSLSLSPG
# light: DIQMTQSPSTLSASVRDRVIITCRASQSIGNRLAWYQHKPGKAPKLLIYEASTSETGVPSRFSGSGSGTDFTLTISSLQPEDFATYYCQQSYSTPYTFGQGTKLEIKRTVAAPSVFIFPPSDEQLKSGTASVVCLLNNFYPREAKVQWKVDNALQSGNSQESVTEQDSKDSTYSLSSTLTLSKADYEKHKVYACEVTHQGLSSPVTKSFNRGEC
# notes: PD-L1 site in the Fab, CD137 site in the CH3, LALA; also called anti-human CD137/PD-L1 mAb^2
# What was measured:
# [1] = molecular target: T2, human PD-L1, cell-surface (human, UniProt Q9NZQ7 19-290); assay: cell-based or functional assay
# [2] = molecular target: T2, human PD-L1, cell-surface; assay: cell-based or functional assay; remark: listed apart in the source
# [3] = molecular target: T3, human CD137, cell-surface (human, UniProt Q07011 24-255); assay: cell-based or functional assay
# [4] = molecular target: T1, cynomolgus CD137, cell-surface; assay: flow cytometry on DO11.10.cCD137
# Description: Non-specific binding was also assessed by testing binding to DO11.10 cells lacking CD137 expression.
# (§1) Briefly, DO11.10, DO11.10.hCD137 or DO11.10.cCD137 suspensions were prepared in FACS buffer (DPBS containing (Gibco, 14190-094) containing 0.5% BSA (Sigma, A7906)) and seeded at 1×10⁵ cell/well in 100 μl in round bottomed 96-well plates (VWR, 734-1797). […] The washed cells were resuspended in the diluted antibody mixture, incubated at 4° C. for 30 minutes, and then washed once in FACS buffer. […] Dead cells were excluded and the fluorescence in the APC channel (638 nm 660/20) was measured. The geometric mean fluorescence intensity (GMFI) values were plotted vs the log concentration of antibody and the resulting curves were fitted using the log (agonist) vs response equation in GraphPad Prism.
# hPD-L1-His-Avi = molecular target: T4, hPD-L1-His-Avi (human); assay: SPR, mAb^2 captured on immobilised human PD-L1 His, then hCD137-mFc-Avi (100 nM) in flow
# T4 construct: also called human PD-L1-His Avi; Human PD-L1 His
# [5] = molecular target: T1, cynomolgus CD137, cell-surface; assay: cell-based or functional assay
# [6] = molecular target: T3, human CD137, cell-surface; assay: cell-based or functional assay; remark: listed apart in the source
# [7] = molecular target: T2, human PD-L1, cell-surface; assay: flow cytometry on activated primary human CD8+ T cells (carry PD-L1 and CD137); activated primary human CD8+ T cells (carry PD-L1 and little CD137)
# Description: CD137 is rapidly expressed to high levels on activated CD8⁺ T cells and also on activated CD4⁺ T cells with lower levels (Xue-Zhong Yu et al, 2013), therefore Pan T cells were stimulated for 24 hours using Dynabeads™ Human T-Activator CD3/CD28 beads (Thermo, 11132D) according to manufacturer's instructions.
# Dead cells were excluded and the fluorescence in the APC channel (638 nm 660/20) was measured to show test antibody binding. The geometric Mean Fluorescence Intensity (GMFI) values were plotted vs the log concentration of antibody and the resulting curves were fitted using the log (agonist) vs response equation in GraphPad Prism.
# [8] = molecular target: T2, human PD-L1, cell-surface; assay: flow cytometry on HEK.hPD-L1
# Description: Non-specific binding was also assessed by testing binding to HEK293 parental cells lacking human PD-L1 (Flp-In T-Rex 293 cell line, Life Technologies, R780-07).
# as §1, with “HEK293, HEK.hPD-L1 and HEK.cPD-L1” for “Briefly, DO11.10, DO11.10.hCD137 or DO11.10.cCD137”, “(DPBS” for “(DPBS containing”
# [9] = molecular target: T5, cPD-L1-His (Acro Biosystems, PD1-C52H4) (cynomolgus, UniProt Q9NZQ7 19-238 (human entry)); assay: SPR, mAb^2 captured on Protein A chip, antigen in flow
# T5 construct: bought; also called Cyno PD-L1-His; Cynomolgus PD-L1-His; not shown: His tag of the bought product
# Description: (§2) Briefly, the anti-human CD137/PD-L1 mAb², diluted in HBS-EP buffer (GE Healthcare, BR100188) at 2 μg/ml, were injected individually on flows cell 2, 3 and 4 of a Protein A chip (GE Healthcare, 29127556) at 30 μl/min to achieve a final response of approximately 110 RU. Two different recombinant human PD-L1 antigens were used i.e. hPD-L1-His-Avi (see Example 1.3 for antigen details) and biotinylated hPD-L1-Avi-His (Acrobiosystems, PD-1-H82E5). Human and cynomolgus PD-L1-His (Acrobiosystems, PD-1-C52H4) antigens, diluted in HBS-EP buffer, were injected on flow cell 1, 2, 3 or 4 as appropriate at a concentration range of 81 nM to 0.037 nM with 3-fold dilutions for 4 min at 75 μl/min and then allowed to dissociate in buffer for 10 min. Regeneration was achieved by injecting 10 mM glycine-HCL pH1.5 (GE Healthcare, Human Antibody Capture Kit, BR00356) for 30 sec at a rate of 30 μl/min. Subtracted data (flow cell 2−flow cell 1, flow cell 3−flow cell 1, or flow cell 4−flow cell 1) were analysed using BIAevaluation 3.2 Software (GE Healthcare) to identify binding using the model 1:1 binding with mass transfer, with refractive index (RI) constant 0.
# [10] = molecular target: T6, biotinylated hPD-L1-Avi-His (Acro Biosystems, PD1-H82E5) (human, UniProt Q9NZQ7 19-238, biotinylated); assay: as above
# T6 construct: bought; also called Human PD-L1-His; not shown: Avi and His tags of the bought product
# Description: as §2
# [11] = molecular target: T3, human CD137, cell-surface; assay: cell-based or functional assay; remark: listed apart in the source
# T2 sequence (Q9NZQ7 19-290): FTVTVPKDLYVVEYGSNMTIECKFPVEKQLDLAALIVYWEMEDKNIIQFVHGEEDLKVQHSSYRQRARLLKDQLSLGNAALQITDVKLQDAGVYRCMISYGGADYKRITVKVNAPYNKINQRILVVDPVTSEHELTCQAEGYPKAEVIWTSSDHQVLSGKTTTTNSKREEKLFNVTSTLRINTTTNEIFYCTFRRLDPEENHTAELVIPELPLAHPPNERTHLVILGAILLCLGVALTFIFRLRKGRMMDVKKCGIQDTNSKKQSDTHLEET
# T4 sequence (chain, as listed by the source limits assumed): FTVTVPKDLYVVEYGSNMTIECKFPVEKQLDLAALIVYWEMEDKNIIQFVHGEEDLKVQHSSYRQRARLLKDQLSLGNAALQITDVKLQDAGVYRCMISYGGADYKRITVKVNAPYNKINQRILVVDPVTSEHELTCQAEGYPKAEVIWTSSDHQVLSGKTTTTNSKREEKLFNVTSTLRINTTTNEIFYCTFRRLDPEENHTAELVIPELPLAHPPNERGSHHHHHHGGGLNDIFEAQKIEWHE
# T5 sequence (Q9NZQ7 other isoform, or with tags, fused parts or gaps): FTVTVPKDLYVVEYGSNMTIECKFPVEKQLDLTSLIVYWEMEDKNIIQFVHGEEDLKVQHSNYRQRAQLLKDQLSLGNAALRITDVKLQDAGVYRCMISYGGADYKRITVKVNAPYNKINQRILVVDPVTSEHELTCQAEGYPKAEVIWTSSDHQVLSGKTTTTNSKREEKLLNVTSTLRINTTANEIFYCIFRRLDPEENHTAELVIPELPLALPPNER
# T6 sequence (Q9NZQ7 19-238): as the sequence (Q9NZQ7 other isoform, or with tags, fused parts or gaps) above, with T33A, S34A, N62S, Q68R, R82Q, L173F, A185T, I192T, L215H counted along it
binder,measurement,setting,value
B1,"EC50 (nM), mouse IL-2 release, DO11.10 / LK35.2 PD-L1 blockade assay",[1],1.27 nM
same,"EC50 (nM), IFN-γ release, human MLR",[2],0.07 nM
same,"EC50 (nM), hIL-2 release, CD8+ T cells, donor 171115A, HEK.hPD-L1 XL",[3],0.24 nM
same,"EC50 (nM), hIL-2 release, CD8+ T cells, donor 171115A, MDA-MB-231 XL",[3],0.02 nM
same,"EC50 (nM), hIL-2 release, CD8+ T cells, donor 171115B, HEK.hPD-L1 XL",[3],0.31 nM
same,"EC50 (nM), hIL-2 release, CD8+ T cells, donor 171115B, MDA-MB-231 XL",[3],0.02 nM
same,EC50,[4],7.39 nM
same,binding result,hPD-L1-His-Avi,binds
same,"EC50, IFN-γ release, cynomolgus PBMC assay",[5],0.08 nM
same,"EC50, IFN-γ release, human PBMC assay",[6],0.03 nM
same,EC50,[7],0.9 nM
same,EC50,[8],3.7 nM
same,Kd,[9],0.36 nM
same,Kd,[10],0.19 nM
same,"EC50 (nM), IFN-γ release, CEFT antigen recall assay (CD4+ T cell activation)",[11],0.08 nM
